* marks the point of attachment. Dnp = O=[N+]([O-])c1ccc(*)c([N+](=O)[O-])c1
Target: SARS-CoV-2 main protease (M^pro), tag-free, native N and C termini (SARS-CoV-2)

B1: FRET substrate MCA-AVLQSGFR-Lys(Dnp)-Lys-NH2 (peptide)
peptide: {MCA}-AVLQSGFRK(Dnp)K-NH2
Question: With B1 as the binder, how does the Michaelis constant (Km) of the FRET-based enzymatic assay; M^pro 100 nM, substrate at various concentrations, Lineweaver-Burk plot read?
Answer: The Michaelis constant (Km) of the FRET-based enzymatic assay; M^pro 100 nM, substrate at various concentrations, Lineweaver-Burk plot was 1.41 µM.

— article PMC7923362
